Assay results from US20230139680A1 (TEXAS A AND M UNIVERSITY SYSTEM, published 2023).
Starred links: 1 amine or outer side, 2 acyl side, 3 side chain; linkers in the order of their positions; H or OH if unused. Positions of bridges follow the written chain, without caps; N, C: chain ends. Non-standard residues stand in square brackets, D forms with d. No end group written: not given here. *: point of attachment. AcrK = N6-acryloyl-L-lysine, C=CC(=O)NCCCC[C@H](N[*:1])C(=O)[*:2]; 5FAM = O=C1OC2(c3ccc(O)cc3Oc3cc(O)ccc32)c2ccc(C(=O)*)cc21

B1: 5-FAM-conjugated LinH8a (peptide)
peptide: CQSLWMNKK(5FAM)-NH2
modifications: N-terminus assumed
SMILES: CSCC[C@H](NC(=O)[C@H](Cc1c[nH]c2ccccc12)NC(=O)[C@H](CC(C)C)NC(=O)[C@H](CO)NC(=O)[C@H](CCC(N)=O)NC(=O)[C@@H](N)CS)C(=O)N[C@@H](CC(N)=O)C(=O)N[C@@H](CCCCN)C(=O)N[C@@H](CCCCNC(=O)c1ccc2c(c1)C(=O)OC21c2ccc(O)cc2Oc2cc(O)ccc21)C(N)=O
notes: Linear counterpart with plain Lys in place of AcrK; also called linear counterpart of 5FAM-CycH8a

Experiments:
HDAC8 [1] = biological target: T1, HDAC8 (UniProt Q9BY41 1-377); assay: fluorescence polarization, 25 nM 5-FAM peptide, protein titrated
T1 construct: Expressed in E. coli BL21(DE3) CodonPlus, purified on Ni-NTA and Q Sepharose; also called HAC8; histone deacetylase 8; not shown: C-terminal TEV site and His6 tag by the plasmid's name (pHD4-HDAC8-TEV-His6)
T1 sequence (looked up): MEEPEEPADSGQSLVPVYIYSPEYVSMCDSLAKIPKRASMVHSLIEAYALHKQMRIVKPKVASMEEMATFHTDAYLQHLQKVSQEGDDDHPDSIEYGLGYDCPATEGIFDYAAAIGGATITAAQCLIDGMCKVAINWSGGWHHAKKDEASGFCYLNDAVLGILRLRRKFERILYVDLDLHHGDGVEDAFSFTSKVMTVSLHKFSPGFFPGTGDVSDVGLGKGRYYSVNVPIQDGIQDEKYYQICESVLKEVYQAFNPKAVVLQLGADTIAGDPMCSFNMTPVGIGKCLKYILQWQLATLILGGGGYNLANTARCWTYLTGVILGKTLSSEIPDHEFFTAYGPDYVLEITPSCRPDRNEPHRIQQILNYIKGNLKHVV

HDAC8 [2] = biological target: T1, HDAC8; assay: fluorescence polarization (summary sentence of the example)
Protocol: The fluorescence polarization was measured in a microplate reader at Ex/Em=490 nm/520 nm.

HDAC8 [3] = biological target: T1, HDAC8; assay: cell-based or functional assay

Row | Binder | Kd (HDAC8 [1]) [µM] | fold stronger affinity than its linear counterpart (HDAC8 [2]) [fold] | IC50 of inhibition of HDAC8 deacetylation of Boc-AcK-AMC (fluorogenic, trypsin-coupled activity assay) (HDAC8 [3]) [µM]
1 | B1 | > 50 |  | 
2 | CQSLWMN[AcrK]K(5FAM)-NH2 (bridge 1-8; not fully specified (bridges), also called 5FAM-CycH8a; 5FAM-cycH8a) [5-FAM-conjugated CycH8a] | 7.1 | 6 | 9.7
